# US6518054B1, “Metallo-endopeptidases” (Rijksuniverstteit Te Groningen, priority 1997, dated 2003)
# What was measured:
# Assay type in all cases: biochemical
# casein = assay: Specific activity with casein as substrate at 37° C.
# Protocol: Specific activities for TLP-ste and the 8-fold mutant were determined using casein (0.8%) as a substrate in 50 mM Tris-HCl (pH 7.5), 5 mM CaCl2 at 37° C. […] (pH 7.0), 5 mM CaCl2, 5% or 1% DMSO, 0.5% isopropanol, 0.01% Triton X-100, 50 mM NaCl, with […] of substrate, by measuring the decrease in absorption at 345 nm (Î345=−317 M^−1·cm^−1). Stock solutions of the furylacryloylated dipeptides, (Sigma, St. Louis, […].) were prepared by dissolving 3-(-2-furylacryloyl)-L-glycyl-L-leucine amide (FaGLa) and 3-(-2-furylacryloyl)-L-alanyl-L-phenylalanine amide (FaAFa) in DMSO. The kcat/Km ratios of the enzymes were determined by varying the enzyme concentrations (over a 50 fold range) under pseudo-first order conditions by measuring the initial activity, essentially according to the method described by Feder^30. The Ki for phosphoramidon (N-[a-L-rhamnopyrano-syl-oxyhydroxyphophinyl]-L-leucyl-L-tryptophan) was determined by a 30 minute preincubation of a 100 pM protease solution with varying concentrations of the inhibitor (10^−8 to 10^−3 M), in 50 mM MOPS (pH 7.0), 5 mM CaCl2, 50 mM NaCl, prior to the addition of the furylacryloated substrate. For determination of the Ki FaAFa was used as the substrate. Since the Km of the substrate for the enzyme is higher than the concentration used, IC50 values were taken to be equal to Ki values. The optimum temperature for activity was determined by incubating proteases with casein (0.8%) in 50 mM Tris-HCl (pH 7.5), 5 mM CaCl2, at different temperatures for 30 minutes, after which the amount of released peptides, indicative for activity, was measured^11.
# [1] = Effect of denaturing agents on protease activity (FaGLa, 50° C.)
# Protocol: Protease activities were determined in 50 mM MOPS (pH 7.0), 5 mM CaCl2, 50 mM NaCl, 0.01% Triton X-100, 0.5% isopropanol, using 100 μM FaGLa (3-(-2-furylacryloyl)-L-glycyl-L-leucine amide) as a substrate at 50° C. Enzymes and denaturing agents were preincubated in the reaction mixture at 50° C. for 15 minutes prior to the addition of the substrate. The reaction was followed by measuring the change in absorbance at 345 nm. […] Activities are expressed as percentage of the activity in the absence of denaturant.
# [2] = tested on: α-amylase from Bacillus licheniformis; assay: Hydrolysis of protease resistant α-amylase (SDS-PAGE); conditions: 60 minutes
# Protocol: As an example of the enzymatic activity of the 8-fold mutant we tested the hydrolysis of protease resistant α-amylase from Bacillus licheniformis by the 8-fold mutant. B. licheniformis α-amylase (1 mg/ml) in 50 mM MOPS, pH 7.0, 5 mM CaCl2, 0.01% Triton X-100 was incubated with purified TLP-ste (1 μg/ml), the 8-fold mutant or without protease for 60 minutes at the temperature indicated. The reaction volume was 500 μL. […] Precipitates (only observed in the 100° C. samples) were collected by centrifugation and redissolved in 500 μL 6 M Urea. Both supernatants and redissolved precipitates were subjected to standard SDS-PAGE, including pre-treatment with sample loading buffer (5 minutes at 100° C.). The samples were identical in size (20 μL supernatant and 20 μL dissolved precipitate). Gels were stained with Coomassie-brilliant blue.
# β-Casein = assay: Proteolytic (cleavage) specificity on β-casein, reversed phase peptide pattern; conditions: moderate and high temperatures (60° C. and 100° C.)
# Protocol: FIG. 3. Typical proteolytic specificity of TLP-ste and the 8-fold mutant β-Casein (1 mg/ml) was incubated with TLP-ste or the 8-fold mutant at a molar ratio of 1000:1 for 1 hour at 60° C. and 100° C., respectively. Under these conditions β-casein behaves as a non-compact and largely flexible structure. The peptides resulting from hydrolysis were derivatized with dansyl-chloride. The proteolytic products were separated by loading a sample corresponding to 50 μg β-casein on a reversed phase column (RP-304, Bio-Rad Laboratories, Watford, Herts., UK). The mobile phase used was 50 mM NaAc, pH 5.2. Peptides were eluted with a linear gradient from 0-60% acetonitrile at a flow rate of 1 ml/min. Absorption of the eluting peptides was monitored at 254 nm.
# [3] = tested on: yeast protein preparation; assay: Hydrolysis of 10% (w/v) yeast proteins compared with commercial enzyme preparations; conditions: yeast proteins 10% w/v
# Description: In industrial applications enzymes are used for the hydrolysis of protein preparations derived from different sources. Here we show the results of a comparative study in which the rate and quality of hydrolysis of casein and yeast protein preparations by the 8-fold mutated TLP-ste variant was compared with that obtained by the hydrolysis using 3 different enzyme preparations that are used for these purposes in industry. The hydrolysis conditions were chosen such that they were optimal for each of the enzyme preparation under study. The hydrolysis products were separated in an acid-soluble and a not acid-soluble fraction. The amount of acid-soluble protein material formed upon hydrolysis was determined by means of measuring the absorbance at 275 nm, whereas the composition of the acid-insoluble hydrolysis products was studied using SDS-PAGE.
# Substrate (10% w/v of casein or yeast protein preparation) was incubated in 50 mM Tris-MES, 5 mM CaCl2, pH 6.5 at 50° C. (Enzyme I, Favourzyme™ 1000L); 50 mM Tris-MES, 5 mM CaCl2, pH 6.0 at 60° C. (Enzyme II, BioProtease N100L); 50 mM Tris-MES, 5 mM CaCl2, pH 8.0 at 60° C. […] The amount of acid-soluble protein released by hydrolysis was determined by measuring the absorbance of the samples at 275 nm. The acid precipitated proteins were redisolved in 6 M urea and subsequently analysed by SDS-PAGE (15% running gel).
molecule,measurement,setting,value
"8-fold mutant: TLP-ste with A4T, T56A, G58A, T63F, S65P, A69P and a disulfide bridge G8C-N60C (protein) VAGTSTVCVGRGVLGDQKYINTTYSSYYGYYYLQDNTRGSGIFTYDGRNRTVLPGSLWADADCQFFAPYDAPAVDAHYYAGVVYDYYKNVHGRLSYDGSNAAIRSTVHYGRGYNNAFWNGSQMVYGDGDGQTFLPFSGGIDVVGHELTHAVTDYTAGLVYQNESGAINEAMSDIFGTLVEFYANRNPDWEIGEDIYTPGVAGDALRSMSDPAKYGDPDHYSKRYTGTQDNGGVHTNSGIINKAAYLLSQGGVHYGVSVNGIGRDKMGKIFYRALVYYLTPTSNFSQLRAACVQAAADLYGSTSQEVNSVKQAFNAVGVY","specific activities at 37° C., wild-type versus mutant",casein,identical
same,Specific activity casein,"casein; casein 0.8%, pH 7.5, 5 mM CaCl2",3.9 ± 0.7 (U/mg) × 10^−3
same,activity and stability in the presence of high concentrations of denaturing agents,[1],active and stable
same,relative activity,[1]; GndHCl 0 M,100%
same,relative activity,[1]; GndHCl 1.0 M,95%
same,relative activity,[1]; GndHCl 2.0 M,83%
same,relative activity,[1]; GndHCl 3.0 M,68%
same,relative activity,[1]; GndHCl 4.0 M,50%
same,relative activity,[1]; GndHCl 5.0 M,40%
same,relative activity,[1]; GndHCl 5.5 M,15%
same,relative activity,[1]; GndHCl 6.0 M,0%
same,relative activity,[1]; SDS 0 % w/v,100%
same,relative activity,[1]; SDS 0.25 % w/v,94%
same,relative activity,[1]; SDS 0.5 % w/v,81%
same,relative activity,[1]; SDS 0.75 % w/v,57%
same,relative activity,[1]; SDS 1.0 % w/v,40%
same,relative activity,[1]; SDS 1.25 % w/v,29%
same,relative activity,[1]; SDS 1.5 % w/v,22%
same,relative activity,[1]; SDS 2.0 % w/v,0%
same,relative activity,[1]; Urea 0 M,100%
same,relative activity,[1]; Urea 0.5 M,97%
same,relative activity,[1]; Urea 1.0 M,91%
same,relative activity,[1]; Urea 2.0 M,93%
same,relative activity,[1]; Urea 3.0 M,86%
same,relative activity,[1]; Urea 4.0 M,72%
same,relative activity,[1]; Urea 5.0 M,63%
same,relative activity,[1]; Urea 7.5 M,35%
same,degradation of B. licheniformis α-amylase,[2]; 80° C. and lower,No significant degradation
same,hydrolysis of B. licheniformis α-amylase,[2]; 100° C.,completely hydrolysed
same,"cleavage specificity, effect of the stabilizing mutations",β-Casein,largely unaffected
same,range of hydrolysis products (SDS-PAGE) versus the other enzymes,[3],much broader range of hydrolysis products
same,rate of hydrolysis and acid-soluble protein products versus the other enzyme preparations,"[3]; enzyme 0.05% v/v, pH 7.0, 90° C.",more rapidly and that more acid-soluble protein products are produced
